In article PMC2867299 (The Journal of Cell Biology, 2010):

Biological target: T1, GST-Myo4p-L-GT (Myo4p linker and globular tail, from residue 1042) (S. cerevisiae, UniProt P32492 1042-1471)
T1 sequence: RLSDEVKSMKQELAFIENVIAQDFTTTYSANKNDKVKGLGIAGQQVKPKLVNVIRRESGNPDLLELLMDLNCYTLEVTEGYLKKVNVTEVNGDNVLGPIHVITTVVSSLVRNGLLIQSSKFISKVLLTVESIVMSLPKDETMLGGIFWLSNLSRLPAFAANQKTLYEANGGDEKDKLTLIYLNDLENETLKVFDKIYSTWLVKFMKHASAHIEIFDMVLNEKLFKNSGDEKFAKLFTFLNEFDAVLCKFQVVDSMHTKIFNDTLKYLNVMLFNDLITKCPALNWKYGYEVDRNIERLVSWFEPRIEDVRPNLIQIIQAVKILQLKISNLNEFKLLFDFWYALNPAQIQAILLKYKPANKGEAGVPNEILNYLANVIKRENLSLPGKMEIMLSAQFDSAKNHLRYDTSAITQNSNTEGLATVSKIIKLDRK
Assay: pull-down

B1: His-She3p-N (N-terminal half of She3p, aa 1-234) (domain or fragment)
chain: MSDQDNTQTSSSKLAPHHNIFMANLESSPTKDRNTSSQNASSSRVIESLHDQIDMLTKTNLQLTTQSQNLLSKLELAQSKESKLLENLNLLKNENENLNSIFERKNKKLKELEKDYSELSNRYNEQKEKMDQLSKLAKNSSAIEQSCSEKLQNMEVNYNSLLESQNLYRDHYSDEISKLNEKIGLLELELSNQNLNYGSDTSSNSDIELNLNKFNDSVKDLKSLETEKDSKLSK
- binding result: binds
